{
  "source": "paper PMC5979958",
  "about": "(Scientific Reports, 2018)",
  "molecules": {"B1": {"name": "R87A-L88A-R89A-MIF (ligand, human, UniProt P14174 1-115, looked up)", "chain": "MPMFIVNTNVPRASVPDGFLSELTQQLAQATGKPPQYIAVHVVPDQLMAFGGSSEPCALCSLHSIGKIGGAQNRSYSKLLCGLLAEAAAISPDRVYINYYDMNAANVGWNNSTFA", "notes": "also called RLR mutant; MIF R87A-L88A-R89A triple mutant; source: E. coli BL21/DE3 (pET11b), purified (Q sepharose anion exchange, Superdex 75 SEC)"}, "B2": {"name": "macrophage migration inhibitory factor (protein, UniProt P14174 2-115, looked up)", "Macrophage migration …": "PMFIVNTNVPRASVPDGFLSELTQQLAQATGKPPQYIAVHVVPDQLMAFGGSSEPCALCSLHSIGKIGGAQNRSYSKLLCGLLAERLRISPDRVYINYYDMNAANVGWNNSTFA", "notes": "recombinant human MIF"}},
  "key": {"[1]": {"tested_on": "MIF/CXCR4-dependent JVM-3 lymphocyte chemotaxis", "test": "inhibition of MIF-mediated JVM-3 B cell chemotaxis by RLR-containing peptides", "type": "cell-based, human", "conditions": "16 nM WT-MIF, pre-incubated 30 min, migration 24 h, 3–12 replicates, 2–3 experiments", "experimental": "(§1) Migration assays using the CXCR4-expressing JVM-3 B cell line were performed in a transmigration well as previously described[32] using the following modifications. Briefly, JVM-3 B cells were sub-cultured and transferred to media without FBS. A migration assay was performed using 24-well format Transwell membranes (Sigma-Corning; 5 µm pore size) containing 1 × 10^6 JVM-3 cells in the upper chamber. […] As positive control, 8 nM CXCL12 was used. Wells without chemoattractant served as negative control and were used to normalize migration effects to ‘chemotactic index’ (number of migrated cells in the presence of chemoattractant divided by the number of migrated cells in the absence of the chemoattractant) – as described previously. […] Cells were allowed to migrate for 24 h. After migration, cells in the lower chamber were counted using Countbright absolute counting beads (Invitrogen) using a FACSVerse flow cytometer (BD Biosciences, Heidelberg, Germany)."}, "[2]": {"tested_on": "JVM-3 B cells (CXCR4-expressing)", "test": "lymphocyte chemotaxis assay, JVM-3 B cells (chemoattractant)", "type": "cell-based, human", "conditions": "for chemotactic effect compared with another chemoattractant: WT-MIF compared with CXCL12, RLR mutant compared with WT-MIF", "experimental": "JVM-3 cells (ACC-18) are a chronic B cell leukemia cell line and were kindly provided by Prof. M. Hallek, University of Cologne Medical School, Cologne, Germany. JVM-3 were grown in RPMI media with 1% penicillin/streptomycin and 10% fetal bovine serum (Invitrogen-Thermo Fisher Scientific, Karlsruhe, Germany) essentially as described previously. Miscellaneous cell culture reagents also were bought from Invitrogen-Thermo Fisher Scientific and from PAA (Pasching, Austria). LPS content of the purified WT-MIF and RLR mutant proteins was tested by limulus amoebocyte assay (LAL, Lonza, Cologne, Germany) following the manufacturer’s recommendation. All other reagents were obtained from Sigma, Merck, Roth, or Calbiochem, and were of the highest purity degree available.\nas §1"}, "[3]": {"test": "circular dichroism spectroscopy", "type": "physicochemical", "conditions": "for aggregation-tendency: far-UV CD at 1, 2.5, and 5 µM, 10 mM sodium phosphate, pH 7.2, 25 °C", "experimental": "CD spectroscopy provides a good estimation of the secondary structural profile of a protein and records relative changes in average secondary structural content, e.g. when a mutated protein is compared to its wildtype counterpart.\nFar-UV circular dichroism (CD) spectra were recorded in a Jasco 700 CD spectropolarimeter (Jasco Labor- u. Datentechnik GmbH, Groß-Umstadt, Germany). Scans were recorded at 25 °C between 195 and 250 nm as an average of three scans and smoothed to obtain the final data. Spectra were collected at 1.0 nm intervals with a bandwidth of 1 nm in a buffer containing 10 mM sodium phosphate, pH 7.2. […] CD spectra are presented as a plot of mean residue ellipticities. […] Secondary structure fractions were quantitated by the Dichroweb online software webtool by deconvolutions of CD spectra using ContinLL at DichroWeb and the reference spectra set 7[43],[44]."}, "[4]": {"test": "size exclusion chromatography, oligomeric state", "type": "physicochemical", "conditions": "Superdex 75, 20 mM sodium phosphate, pH 7.2", "quoted_text": "The mutant protein was eluted from the anion exchange column via salt gradient and subjected to size exclusion chromatography (SEC) for further purification.\nFollowing Q sepharose, the protein was further purified by size exclusion chromatography (SEC, Superdex 75, GE Healthcare) in 20 mM sodium phosphate buffer, pH 7.2, i.e. buffer conditions compatible with MIF bioactivity."}, "[5]": {"biological_target": "the molecule itself", "test": "SEC; Superdex 75 in 20 mM sodium phosphate buffer, pH 7.2, after Q sepharose; peaks at approximately 23 and 38 kDa"}, "[6]": {"tested_on": "human CXCR4 expressed in S. cerevisiae", "conditions": "yeast CXCR4 signaling system, in comparison with CXCL12; cited from earlier work", "excerpt": "To address the contribution of the RLR motif to MIF/CXCR4-specific cell signaling responses, we employed a genetically modified strain of Saccharomyces cerevisiae that replaces the yeast ste2 GPCR with human CXCR4 as previously reported. This cell system eliminates complications from mammalian cells that usually express more than one or all MIF cell surface receptors and is based on agonist-mediated activation of CXCR4 leading to a signaling cascade that results in β-galactosidase expression from the Fus1-lacZ reporter plasmid."}},
  "note": "“And” between values parts separate entries of the source, which are not always exact repeats. Identical values can stand only once.",
  "data": [
    {"molecule": "ERLRISPDRVYINYY [MIF(86–100), RLR-spanning MIF peptide]", "values": [
      {"measurement": "inhibition of WT-MIF-mediated JVM-3 chemotaxis", "setting": "[1]; peptide 10 nM and 100 nM", "result": "trend towards inhibition"},
      {"measurement": "inhibition of WT-MIF-mediated JVM-3 chemotaxis", "setting": "[1]; peptide 1 µM", "result": "significant and complete blockade"}
    ]},
    {"molecule": "YSKLLCGLLAERLRI [MIF(76–90), RLR-spanning MIF peptide]", "values": [
      {"measurement": "inhibition of WT-MIF-mediated JVM-3 chemotaxis", "setting": "[1]; peptide 10 nM and 100 nM", "result": "ablated"}
    ]},
    {"molecule": "B1", "values": [
      {"measurement": "chemotactic activity on JVM-3 B cells", "setting": "[2]; RLR mutant 8 nM, 16 nM, 32 nM, p = ns, 24 h, Transwell 5 µm", "result": "did not exhibit a significant chemotactic activity"},
      {"measurement": "chemotactic activity on JVM-3 lymphocytes", "setting": "[2]; RLR mutant 16 nM (optimal concentration of WT-MIF)", "result": "failed to show any chemotactic activity"},
      {"measurement": "chemotactic activity on JVM-3 lymphocytes", "setting": "[2]; RLR mutant 32 nM, effect did not reach statistical significance", "result": "slight increase in activity"},
      {"measurement": "chemotactic effect compared with another chemoattractant", "setting": "[2]", "result": "Impaired chemotactic effect"},
      {"measurement": "chemotactic effect compared with another chemoattractant", "setting": "[2]; listed as MIF R87A-L88A-R89A triple mutant", "result": "reduced cell migratory response"},
      {"measurement": "chemotactic effect compared with another chemoattractant", "setting": "[2]; listed as RLR-mutant of MIF", "result": "reduction"},
      {"measurement": "increase of random coil content vs WT-MIF", "setting": "[3]; CD deconvolution by Dichroweb", "result": "approximately 20%"},
      {"measurement": "reduction of α-helix content vs WT-MIF", "setting": "[3]; CD deconvolution by Dichroweb", "result": 12, "unit": "%"},
      {"measurement": "reduction of β-strand percentage vs WT-MIF", "setting": "[3]; CD deconvolution by Dichroweb", "result": 7, "unit": "%"},
      {"measurement": "decrease in ordered secondary structural content vs WT-MIF", "setting": "[3]; CD spectroscopy", "result": 20, "unit": "%"},
      {"measurement": "aggregation-tendency", "setting": "[3]", "result": "neither protein showed an aggregation-tendency"},
      {"measurement": "approximate molecular size of SEC peak, first species", "setting": "[4]; suggests dimers", "result": "~23", "unit": "kDa"},
      {"measurement": "approximate molecular size of SEC peak, second species", "setting": "[4]; suggests trimers", "result": "~38", "unit": "kDa"},
      {"measurement": "stoichiometry N", "setting": "[5]", "result": "2 and 3"}
    ]},
    {"molecule": "B2", "values": [
      {"measurement": "chemotactic effect compared with another chemoattractant", "setting": "[2]", "result": "lower than that of CXCL12"},
      {"measurement": "aggregation-tendency", "setting": "[3]", "result": "neither protein showed an aggregation-tendency"},
      {"measurement": "type of agonism at CXCR4", "setting": "[6]", "result": "partial allosteric agonism"}
    ]}
  ]
}
